The text below walks through data of publication PMC5066494, “Interaction between RNA helicase ROOT INITIATION DEFECTIVE 1 and GAMETOPHYTIC FACTOR 1 is involved in female gametophyte development in Arabidopsis” (Journal of Experimental Botany, 2016).

The target of the assay is T1, GST-tagged GFA1 (GST-GFA1) (Arabidopsis, UniProt Q9LNC5 1-987).
T1 construct: GAMETOPHYTIC FACTOR 1 (GFA1), Arabidopsis, full-length cDNA in pGEX-4T-1; also called pGEX-4T-GFA1; source: E. coli BL21 (DE3), purified (glutathione-Sepharose 4B)
T1 sequence (looked up): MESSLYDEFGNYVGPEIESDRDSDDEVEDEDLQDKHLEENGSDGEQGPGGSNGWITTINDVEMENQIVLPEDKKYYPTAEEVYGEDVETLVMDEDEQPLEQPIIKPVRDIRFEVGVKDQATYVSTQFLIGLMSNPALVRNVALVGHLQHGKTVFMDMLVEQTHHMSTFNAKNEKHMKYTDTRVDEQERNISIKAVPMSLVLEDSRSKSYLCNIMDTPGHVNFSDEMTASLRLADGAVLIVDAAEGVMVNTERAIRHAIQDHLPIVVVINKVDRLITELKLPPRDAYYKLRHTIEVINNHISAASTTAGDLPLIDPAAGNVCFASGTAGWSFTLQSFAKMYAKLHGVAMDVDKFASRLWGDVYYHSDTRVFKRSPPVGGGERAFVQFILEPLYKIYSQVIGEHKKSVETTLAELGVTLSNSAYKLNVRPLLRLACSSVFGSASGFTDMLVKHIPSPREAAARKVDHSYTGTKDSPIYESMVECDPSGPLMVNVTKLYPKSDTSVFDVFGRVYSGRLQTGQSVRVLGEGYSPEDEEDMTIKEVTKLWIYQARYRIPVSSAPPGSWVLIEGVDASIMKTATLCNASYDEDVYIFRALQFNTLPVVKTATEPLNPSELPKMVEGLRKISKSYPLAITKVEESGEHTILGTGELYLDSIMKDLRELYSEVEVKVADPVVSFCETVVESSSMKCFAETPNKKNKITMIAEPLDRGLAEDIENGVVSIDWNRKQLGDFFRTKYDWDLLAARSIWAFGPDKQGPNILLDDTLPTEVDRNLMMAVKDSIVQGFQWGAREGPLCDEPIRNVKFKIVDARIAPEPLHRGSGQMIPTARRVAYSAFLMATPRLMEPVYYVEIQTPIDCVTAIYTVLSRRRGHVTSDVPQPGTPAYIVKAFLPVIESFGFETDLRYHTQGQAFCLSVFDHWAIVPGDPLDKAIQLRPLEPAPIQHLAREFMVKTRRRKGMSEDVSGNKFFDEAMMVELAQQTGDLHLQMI
The assay is described as follows: pull-down; GST or GST-GFA1 on glutathione-Sepharose 4B beads, His-RID1 added, 4 °C 1–2 h; 50mM Tris-HCl pH 7.5, 100mM NaCl; wash with 150mM NaCl, 25mM imidazole; immunoblot with anti-HIS antibody. The note with it: both partners purified.

B1: hexa-histidine-tagged RID1 (His-RID1) (natural protein, Arabidopsis, UniProt F4IE66 1-717, looked up)
chain: MPSMAQGELKSFVQNSRPNPKSPTVSPFSMRQKIAEHRRSLPIASVEKRLVEEVQKNDILIIVGETGSGKTTQLPQFLYNAGFCREGKMIGITQPRRIAAVTVAKRVAEECEVQLGQKVGYSIRFDDTTSGSTRLKYMTDGLLLREALLDPHLSRYSVIIVDEAHDRSVHTDVLLALLKKIQRTRSQPVSEKTEFGNVASQVQTTTRDANGPQQNGVLKGYQGRKLSPLKLIIMSASLDARVFSEYFGGAKAVHVQGRQFPVDILYTVHPESDYVDATLVTIFQIHFEEKPGDILVFLTGQDEIESVERLVQERLQNIPEDKRKLLPLAIFSALPSEQQMKVFAPAPTGFRKVILATNIAETSITIPGIRYVIDPGFVKARSYDPSKGMESLDVVPASKAQTLQRSGRAGREGPGKSFRLYPEREFEKLEDSTKPEIKRCNLSNIILQLKALGIDDIVGFDFIDKPSRGAIIKALAELHSLGALADDGKLENPVGYQMSRLPLEPVYSKALILANQFNCLEEMLITVAVLSVESIFYDPREKREEARTSKNHFASVEGDHLTYLSVYRESDEFLEKRKAAGSGNNIDKIMKKWCKENYVNSRSLKHARDIYRQIREHVEQIGFNVSSCGNDMLAFRRCLAASFFLKAAQRQLDGTYRALESGEVVHIHPTSVLFRAKPECVIFNELMQTSKKYIKNLTIIDSLWLSELAPHHFQTAE
notes: ROOT INITIATION … 1 (RID1), Arabidopsis, At1g26370, full-length cDNA in pET-28a-c(+); also called pET-28a-RID1; source: E. coli BL21 (DE3), purified (Ni Sepharose 6 Fast Flow)
As to B1, the binding result was “binds”.
